Test results taken from PMC9482650, “Quantitative fragmentomics allow affinity mapping of interactomes” (Nature Communications, 2022).

Assays:
Experiment in all cases: holdup assay
Parameters in all cases: key: below the threshold = too weak to quantify, mostly under pKd 3.1 to 4
Conditions in all cases: plain residues with an end cap or a label only (N-terminal biotin on a linker: ado-ado)
GRIP1_4, Q9Y3R0 = target: T1, GRIP1_4, Q9Y3R0
T1 sequence (Q9Y3R0 467-571, limits assumed, looked up): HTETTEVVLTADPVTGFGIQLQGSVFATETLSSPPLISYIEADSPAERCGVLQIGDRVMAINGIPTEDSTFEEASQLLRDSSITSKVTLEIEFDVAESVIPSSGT

RHPN1, Q8TCX5 = target: T2, RHPN1, Q8TCX5
T2 sequence (Q8TCX5 508-602, limits assumed, looked up): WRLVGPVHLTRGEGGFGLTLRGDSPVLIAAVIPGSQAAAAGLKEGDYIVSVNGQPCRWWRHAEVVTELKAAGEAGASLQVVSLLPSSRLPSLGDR

MPDZ_10, O75970 = target: T3, MPDZ_10, O75970
T3 sequence (O75970 1624-1722, limits assumed, looked up): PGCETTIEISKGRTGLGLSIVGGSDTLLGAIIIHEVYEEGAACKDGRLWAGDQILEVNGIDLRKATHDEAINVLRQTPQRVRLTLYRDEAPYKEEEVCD

DLG1_3, Q12959 = target: DLG1_3, Q12959
Chain of DLG1_3, Q12959 (Q12959 457-571): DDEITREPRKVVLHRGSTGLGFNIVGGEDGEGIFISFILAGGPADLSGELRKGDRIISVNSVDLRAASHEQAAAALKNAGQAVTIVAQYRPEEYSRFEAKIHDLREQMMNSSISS

Inadl_10, Q8NI35 = target: Inadl_10, Q8NI35
Chain of Inadl_10, Q8NI35 (Q8NI35 1673-1763): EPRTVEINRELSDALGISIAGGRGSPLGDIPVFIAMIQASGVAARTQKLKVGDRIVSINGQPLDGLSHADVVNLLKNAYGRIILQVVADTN

LIN7B, Q9HAP6 = target: T4, LIN7B, Q9HAP6
T4 sequence (Q9HAP6 88-185, limits assumed, looked up): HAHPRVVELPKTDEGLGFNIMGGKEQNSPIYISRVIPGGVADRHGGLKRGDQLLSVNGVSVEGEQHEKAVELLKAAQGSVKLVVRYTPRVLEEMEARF

SYNJ2BP, P57105 = target: T5, SYNJ2BP, P57105
T5 sequence (P57105 8-110, limits assumed, looked up): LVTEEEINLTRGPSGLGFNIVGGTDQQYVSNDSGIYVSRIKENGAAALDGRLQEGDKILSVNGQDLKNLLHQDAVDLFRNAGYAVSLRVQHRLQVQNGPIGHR

DLG3_2, Q92796 = target: T6, DLG3_2, Q92796
T6 sequence (Q92796 221-321, limits assumed, looked up): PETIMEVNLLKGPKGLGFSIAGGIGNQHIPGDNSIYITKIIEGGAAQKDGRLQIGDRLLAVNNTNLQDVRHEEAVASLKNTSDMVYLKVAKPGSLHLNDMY

HTRA1, Q92743 = target: HTRA1, Q92743
Chain of HTRA1, Q92743 (Q92743 360-477): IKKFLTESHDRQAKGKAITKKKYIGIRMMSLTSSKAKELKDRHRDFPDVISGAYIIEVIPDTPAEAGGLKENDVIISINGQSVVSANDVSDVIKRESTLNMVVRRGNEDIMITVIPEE

DFNB31_1, Q9P202 = target: T7, DFNB31_1, Q9P202
T7 sequence (Q9P202 135-233, limits assumed, looked up): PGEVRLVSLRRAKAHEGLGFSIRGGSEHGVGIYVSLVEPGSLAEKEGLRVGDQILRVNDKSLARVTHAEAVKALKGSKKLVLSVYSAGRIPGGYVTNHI

GORASP2, Q9H8Y8 = target: GORASP2, Q9H8Y8
NHERF4_4, Q86UT5 = target: NHERF4_4, Q86UT5
Chain of NHERF4_4, Q86UT5 (Q86UT5 464-550): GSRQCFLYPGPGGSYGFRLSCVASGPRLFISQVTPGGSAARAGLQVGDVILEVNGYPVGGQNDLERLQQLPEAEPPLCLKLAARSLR

HTRA3, P83110 = target: T8, HTRA3, P83110
T8 sequence (P83110 354-453, limits assumed, looked up): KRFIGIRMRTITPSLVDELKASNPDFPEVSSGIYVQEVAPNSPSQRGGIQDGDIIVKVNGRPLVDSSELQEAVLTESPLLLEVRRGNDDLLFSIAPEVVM

IL16_1, Q14005 = target: IL16_1, Q14005
Chain of IL16_1, Q14005 (Q14005 210-306): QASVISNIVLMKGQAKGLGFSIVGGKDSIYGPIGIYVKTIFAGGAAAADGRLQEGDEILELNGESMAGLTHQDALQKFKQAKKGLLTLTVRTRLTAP

LAP2, Q96RT1 = target: LAP2, Q96RT1
Chain of LAP2, Q96RT1 (Q96RT1 other isoform, or with tags, fused parts or gaps): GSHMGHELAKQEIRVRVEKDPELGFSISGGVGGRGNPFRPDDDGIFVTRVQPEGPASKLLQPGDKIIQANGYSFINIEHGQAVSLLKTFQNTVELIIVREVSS

DLG4_1, P78352 = target: DLG4_1, P78352
Chain of DLG4_1, P78352 (P78352 62-152): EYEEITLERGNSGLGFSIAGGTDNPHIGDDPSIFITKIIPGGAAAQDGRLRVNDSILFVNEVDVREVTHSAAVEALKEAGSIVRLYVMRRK

NOS1, P29475 = target: NOS1, P29475
Chain of NOS1, P29475 (P29475 9-101): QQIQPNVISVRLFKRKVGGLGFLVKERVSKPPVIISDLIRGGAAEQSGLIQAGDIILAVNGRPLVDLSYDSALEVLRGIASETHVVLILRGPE

TJP2_1, Q9UDY2 = target: TJP2_1, Q9UDY2
Chain of TJP2_1, Q9UDY2 (Q9UDY2 24-128): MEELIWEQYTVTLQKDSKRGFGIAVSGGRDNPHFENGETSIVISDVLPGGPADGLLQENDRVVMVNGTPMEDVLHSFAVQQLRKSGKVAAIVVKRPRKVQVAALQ

Inadl_5, Q8NI35 = target: Inadl_5, Q8NI35
Chain of Inadl_5, Q8NI35 (Q8NI35 673-780): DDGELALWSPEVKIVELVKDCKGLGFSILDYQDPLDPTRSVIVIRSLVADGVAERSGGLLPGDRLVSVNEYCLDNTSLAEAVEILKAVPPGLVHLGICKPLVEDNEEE

PTPN13_1, Q12923 = target: T9, PTPN13_1, Q12923
T9 sequence (Q12923 1088-1188, limits assumed, looked up): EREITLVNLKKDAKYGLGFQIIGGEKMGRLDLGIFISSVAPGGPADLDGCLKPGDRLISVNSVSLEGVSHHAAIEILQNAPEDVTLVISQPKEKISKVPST

Inadl_9, Q8NI35 = target: Inadl_9, Q8NI35
Chain of Inadl_9, Q8NI35 (Q8NI35 1530-1615): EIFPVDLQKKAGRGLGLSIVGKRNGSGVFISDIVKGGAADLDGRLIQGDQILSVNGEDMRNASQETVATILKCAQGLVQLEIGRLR

DLG3_1, Q92796 = target: T10, DLG3_1, Q92796
T10 sequence (Q92796 125-227, limits assumed, looked up): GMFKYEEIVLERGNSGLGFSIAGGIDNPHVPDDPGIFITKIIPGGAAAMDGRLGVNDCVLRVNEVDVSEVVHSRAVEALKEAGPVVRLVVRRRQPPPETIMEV

PARD3B_1, Q8TEW8 = target: T11, PARD3B_1, Q8TEW8
T11 sequence (Q8TEW8 196-299, limits assumed, looked up): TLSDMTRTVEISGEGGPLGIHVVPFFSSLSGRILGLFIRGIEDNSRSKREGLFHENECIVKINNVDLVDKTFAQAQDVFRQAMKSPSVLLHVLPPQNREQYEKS

GRIP1_2, Q9Y3R0 = target: T12, GRIP1_2, Q9Y3R0
T12 sequence (Q9Y3R0 145-248, limits assumed, looked up): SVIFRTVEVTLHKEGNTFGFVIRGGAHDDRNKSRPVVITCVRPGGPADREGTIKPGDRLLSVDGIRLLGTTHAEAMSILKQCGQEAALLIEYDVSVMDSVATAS

TJP1_3, Q07157 = target: TJP1_3, Q07157
Chain of TJP1_3, Q07157 (Q07157 416-512): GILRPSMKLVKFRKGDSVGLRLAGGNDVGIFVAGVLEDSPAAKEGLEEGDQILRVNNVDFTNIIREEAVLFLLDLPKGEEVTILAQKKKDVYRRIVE

Measured: pKd

B1: KCNJ1, P48048 (peptide)
chain: EVNETDDTKM
below the threshold: GRIP1_4, Q9Y3R0 | RHPN1, Q8TCX5 | MPDZ_10, O75970 | DLG1_3, Q12959 | LIN7B, Q9HAP6 | HTRA1, Q92743 | GORASP2, Q9H8Y8 | NHERF4_4, Q86UT5 | HTRA3, P83110 | IL16_1, Q14005 | DLG4_1, P78352 | NOS1, P29475 | TJP2_1, Q9UDY2 | Inadl_5, Q8NI35 | PTPN13_1, Q12923 | Inadl_9, Q8NI35 | DLG3_1, Q92796 | PARD3B_1, Q8TEW8 | GRIP1_2, Q9Y3R0 | TJP1_3, Q07157
3.63: DLG3_2, Q92796
3.59: Inadl_10, Q8NI35
4.39: SYNJ2BP, P57105
3.69: DFNB31_1, Q9P202
3.5: LAP2, Q96RT1

B2: ASNSD1, Q9NWL6 (peptide)
chain: NLSIEKETKL
4.24: DLG3_2, Q92796
3.89: PARD3B_1, Q8TEW8
3.53: DLG1_3, Q12959
3.85: SYNJ2BP, P57105
3.52: LAP2, Q96RT1
below the threshold: GRIP1_4, Q9Y3R0 | MPDZ_10, O75970 | Inadl_10, Q8NI35 | HTRA1, Q92743 | GORASP2, Q9H8Y8 | NHERF4_4, Q86UT5 | HTRA3, P83110 | IL16_1, Q14005 | DLG4_1, P78352 | NOS1, P29475 | TJP2_1, Q9UDY2 | Inadl_5, Q8NI35 | PTPN13_1, Q12923 | Inadl_9, Q8NI35 | DLG3_1, Q92796 | GRIP1_2, Q9Y3R0 | TJP1_3, Q07157
4.47: LIN7B, Q9HAP6
4.76: RHPN1, Q8TCX5
4.41: DFNB31_1, Q9P202

B3: ACTN2, P35609 (peptide)
chain: SSALYGESDL
3.87: SYNJ2BP, P57105
3.76: LIN7B, Q9HAP6
3.51: RHPN1, Q8TCX5
3.75: DLG1_3, Q12959
4.18: DLG3_2, Q92796
below the threshold: GRIP1_4, Q9Y3R0 | MPDZ_10, O75970 | Inadl_10, Q8NI35 | HTRA1, Q92743 | DFNB31_1, Q9P202 | GORASP2, Q9H8Y8 | NHERF4_4, Q86UT5 | HTRA3, P83110 | IL16_1, Q14005 | DLG4_1, P78352 | NOS1, P29475 | TJP2_1, Q9UDY2 | Inadl_5, Q8NI35 | PTPN13_1, Q12923 | Inadl_9, Q8NI35 | DLG3_1, Q92796 | PARD3B_1, Q8TEW8 | GRIP1_2, Q9Y3R0 | TJP1_3, Q07157
3.96: LAP2, Q96RT1

B4: LRRC4B, Q9NT99 (peptide)
chain: SKENVQETQI
5.1: RHPN1, Q8TCX5
4.69: DLG3_2, Q92796
4.13: LIN7B, Q9HAP6
3.73: DLG3_1, Q92796
4.6: SYNJ2BP, P57105
5.32: DFNB31_1, Q9P202
3.69: LAP2, Q96RT1
4.02: DLG4_1, P78352
3.77: DLG1_3, Q12959
3.85: NOS1, P29475
below the threshold: GRIP1_4, Q9Y3R0 | MPDZ_10, O75970 | Inadl_10, Q8NI35 | HTRA1, Q92743 | GORASP2, Q9H8Y8 | NHERF4_4, Q86UT5 | HTRA3, P83110 | IL16_1, Q14005 | TJP2_1, Q9UDY2 | Inadl_5, Q8NI35 | PTPN13_1, Q12923 | Inadl_9, Q8NI35 | PARD3B_1, Q8TEW8 | GRIP1_2, Q9Y3R0 | TJP1_3, Q07157

B5: TRPC5, Q9UL62 (peptide)
chain: GQEEQVTTRL
3.57: NOS1, P29475
4.5: PARD3B_1, Q8TEW8
3.97: DLG3_2, Q92796
4.42: DFNB31_1, Q9P202
3.92: HTRA1, Q92743
4.85: RHPN1, Q8TCX5
below the threshold: GRIP1_4, Q9Y3R0 | MPDZ_10, O75970 | DLG1_3, Q12959 | Inadl_10, Q8NI35 | LIN7B, Q9HAP6 | SYNJ2BP, P57105 | GORASP2, Q9H8Y8 | NHERF4_4, Q86UT5 | HTRA3, P83110 | IL16_1, Q14005 | LAP2, Q96RT1 | DLG4_1, P78352 | TJP2_1, Q9UDY2 | Inadl_5, Q8NI35 | PTPN13_1, Q12923 | Inadl_9, Q8NI35 | DLG3_1, Q92796 | GRIP1_2, Q9Y3R0 | TJP1_3, Q07157

B6: KCNA1, Q09470 (peptide)
chain: VNKSKLLTDV
3.72: SYNJ2BP, P57105
3.66: DLG3_1, Q92796
3.96: RHPN1, Q8TCX5
3.78: LIN7B, Q9HAP6
3.91: GORASP2, Q9H8Y8
4.08: DLG4_1, P78352
4.7: DLG3_2, Q92796
below the threshold: GRIP1_4, Q9Y3R0 | MPDZ_10, O75970 | DLG1_3, Q12959 | Inadl_10, Q8NI35 | HTRA1, Q92743 | DFNB31_1, Q9P202 | NHERF4_4, Q86UT5 | HTRA3, P83110 | IL16_1, Q14005 | LAP2, Q96RT1 | NOS1, P29475 | TJP2_1, Q9UDY2 | Inadl_5, Q8NI35 | PTPN13_1, Q12923 | Inadl_9, Q8NI35 | PARD3B_1, Q8TEW8 | GRIP1_2, Q9Y3R0 | TJP1_3, Q07157
